Residue numbers refer to the chain shown, from its start.
B1: 1.153.7 hAb (antibody, V domains shown)
VH: EVQLLESGGGLVQPGGSLRLSCAASGFTFSSHAMSWVRQAPGKGLEWVSTITGGGGSIYYADSVKGRFTISRDNSKNTLYLQMNSLRAEDTAVYYCAKNRAGEGYFDYWGQGTLVTVSS
VL: SYELTQPLSVSVALGQTARITCGGDNIGNKDVHWYQQKPGQAPVLVIYRDSNRPSGIPEGFSGSNSGNTATLTISRAQAGDEADYYCQVWDSIWVFGGGTKLTVL
B2: 1.103.11 hAb (antibody, V domains shown)
VH: QLQLQESGPGLVKPSETLTLTCTVSADSISSTTYYWVWIRQPPGKGLEWIGSISYSGSTYYNPSLKSRVTVSVDTSKNQFSLKLNSVAATDTALYYCARHLGYNGRYLPFDYWGQGTLVTVSS
VL: QSALTQPASVSGSPGQSITISCTGTSSDVGFYNYVSWYQQHPGKAPELMIYDVSNRPSGVSDRFSGSKSGNTASLTISGLQAEDEADYYCSSYTNISTWVFGGGTKLTVL
B3: 1.7.3 hAb (antibody, V domains shown)
VH: B2 VH with A26G, S58N, V71I, Q79H, N85S
VL: B2 VL with S54T, N95S
B4: 1.139.15 hAb (antibody, V domains shown)
VH: QLQLQESGPGLVKPSETLSLTCTVSGGSISSTTYYWGWIRQPPGKGLEWIGSISYSGTTYYNPSLKSRVTIPVDTSKNQISLKLSSVTAADTSLYYCARHLGYNSNWYPFDYWGQGTLVTVSS
VL: QSALTQPPSVSGSPGQSVTISCTGTSSDVGSYNRVSWYQQPPGTAPEVIIYEVSNRPSGVPDRFSGSKSGNTASLTISGLQAEDEADYYCSSYTSSSTWVFGGGTKLTVL
B5: 1.49.9 hAb (antibody, V domains shown)
VH: QLQLQESGPGLVKPSETLSLTCTVSGGSISSSTYYWGWIRQPPGKGLEWIGSISYSGSTYYNPSLKSRVTISVDTSKNQFSLKLSSVTDADTAVYYCARHLGYNGRYLPFDYWGQGTLVTVSS
VL: B2 VL with L48V, N95S

Biological target: T1, human PD-1 expressed on cells (human, UniProt Q15116 25-288)
T1 sequence (Q15116 25-288): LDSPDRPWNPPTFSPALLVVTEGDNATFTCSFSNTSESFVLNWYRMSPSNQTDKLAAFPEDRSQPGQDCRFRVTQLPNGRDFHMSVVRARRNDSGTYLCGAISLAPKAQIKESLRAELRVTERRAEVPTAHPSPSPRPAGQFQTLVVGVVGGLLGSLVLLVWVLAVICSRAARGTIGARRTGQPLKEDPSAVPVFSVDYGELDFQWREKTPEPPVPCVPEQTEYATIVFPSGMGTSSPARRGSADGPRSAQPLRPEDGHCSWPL
Test: FACS blocking of PD-L1 binding

Row | IC50 | Binder
1 | 4.49 nM | B1
2 | 4.44 nM | B2
3 | 3.51 nM | B3
4 | 3.1 nM | B4
5 | 4.21 nM | B5

Biological target: recombinant human PD-1 (human, UniProt Q15116 25-167)
Sequence (Q15116 25-167): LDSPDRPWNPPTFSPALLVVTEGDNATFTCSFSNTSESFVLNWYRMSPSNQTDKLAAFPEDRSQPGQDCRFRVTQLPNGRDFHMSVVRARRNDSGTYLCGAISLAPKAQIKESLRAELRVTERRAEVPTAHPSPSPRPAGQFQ
Test: SPR

Row | Kd | Binder
6 | 2.79 nM | B1
7 | 0.175 nM | B2
8 | 0.176 nM | B3
9 | 3.71 nM | B4
10 | 1.07 nM | B5

Biological target: T1, human PD-1 expressed on cells
Test: FACS

Row | EC50 | Binder
11 | 2.62 nM | B1
12 | 2.09 nM | B2
13 | 2.44 nM | B3
14 | 1.92 nM | B4
15 | 2.15 nM | B5

— patent US20190270815A1 (published 2019)
